# Assay results: doi:10.1101/2023.05.30.542861 (bioRxiv, 2023)
# B1: L-Glutamate dehydrogenase from bovine liver (enzyme)
# chain: not shown
# Target: the molecule itself
# Assay: cross-linking
protein,measurement,value
B1,stoichiometry N,6
